Data published in paper PMC12416549 (2024).

T1: TNFR1 (Homo sapiens, UniProt P19438)
T1 chain: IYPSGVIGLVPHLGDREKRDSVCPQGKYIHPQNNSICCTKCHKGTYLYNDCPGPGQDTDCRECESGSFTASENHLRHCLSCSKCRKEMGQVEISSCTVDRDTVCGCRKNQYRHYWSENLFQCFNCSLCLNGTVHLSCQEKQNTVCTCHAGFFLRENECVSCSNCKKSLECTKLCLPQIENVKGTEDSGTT


Target: T1, TNFR1
Experiment: yeast display SC50

Binder | apparent Kd (screen) [nM]
K73S (designed binder) SMEEEVEKAAKEYEKKKKEAIEKHLEKLKAKDKEAAERFLKELEEAAKEYAKDEAKTMSEEEAKRRAKKYKESVLLSELSEEEQKEIKEAEEKLVRTILKYVEEAAK | 9.41
K48V (designed binder) SMEEEVEKAAKEYEKKKKEAIEKHLEKLKAKDKEAAERFLKELEEAAVEYAKDEAKTMSEEEAKRRAKKYKEKVLLSELSEEEQKEIKEAEEKLVRTILKYVEEAAK | 0.653
K23G (designed binder) SMEEEVEKAAKEYEKKKKEAIEGHLEKLKAKDKEAAERFLKELEEAAKEYAKDEAKTMSEEEAKRRAKKYKEKVLLSELSEEEQKEIKEAEEKLVRTILKYVEEAAK | 0.446
V102K (designed binder) SMEEEVEKAAKEYEKKKKEAIEKHLEKLKAKDKEAAERFLKELEEAAKEYAKDEAKTMSEEEAKRRAKKYKEKVLLSELSEEEQKEIKEAEEKLVRTILKYKEEAAK | 1.27
A36Y (designed binder) SMEEEVEKAAKEYEKKKKEAIEKHLEKLKAKDKEAYERFLKELEEAAKEYAKDEAKTMSEEEAKRRAKKYKEKVLLSELSEEEQKEIKEAEEKLVRTILKYVEEAAK | 0.539
M58F (designed binder) SMEEEVEKAAKEYEKKKKEAIEKHLEKLKAKDKEAAERFLKELEEAAKEYAKDEAKTFSEEEAKRRAKKYKEKVLLSELSEEEQKEIKEAEEKLVRTILKYVEEAAK | 11.4
I21M (designed binder) SMEEEVEKAAKEYEKKKKEAMEKHLEKLKAKDKEAAERFLKELEEAAKEYAKDEAKTMSEEEAKRRAKKYKEKVLLSELSEEEQKEIKEAEEKLVRTILKYVEEAAK | 0.539
K56R (designed binder) SMEEEVEKAAKEYEKKKKEAIEKHLEKLKAKDKEAAERFLKELEEAAKEYAKDEARTMSEEEAKRRAKKYKEKVLLSELSEEEQKEIKEAEEKLVRTILKYVEEAAK | 1.54
A67W (designed binder) SMEEEVEKAAKEYEKKKKEAIEKHLEKLKAKDKEAAERFLKELEEAAKEYAKDEAKTMSEEEAKRRWKKYKEKVLLSELSEEEQKEIKEAEEKLVRTILKYVEEAAK | 10.4
L94N (designed binder) SMEEEVEKAAKEYEKKKKEAIEKHLEKLKAKDKEAAERFLKELEEAAKEYAKDEAKTMSEEEAKRRAKKYKEKVLLSELSEEEQKEIKEAEEKNVRTILKYVEEAAK | 20.2
L94C (designed binder) SMEEEVEKAAKEYEKKKKEAIEKHLEKLKAKDKEAAERFLKELEEAAKEYAKDEAKTMSEEEAKRRAKKYKEKVLLSELSEEEQKEIKEAEEKCVRTILKYVEEAAK | 2.73
E60F (designed binder) SMEEEVEKAAKEYEKKKKEAIEKHLEKLKAKDKEAAERFLKELEEAAKEYAKDEAKTMSFEEAKRRAKKYKEKVLLSELSEEEQKEIKEAEEKLVRTILKYVEEAAK | 0.956
T97W (designed binder) SMEEEVEKAAKEYEKKKKEAIEKHLEKLKAKDKEAAERFLKELEEAAKEYAKDEAKTMSEEEAKRRAKKYKEKVLLSELSEEEQKEIKEAEEKLVRWILKYVEEAAK | 2.48
L40V (designed binder) SMEEEVEKAAKEYEKKKKEAIEKHLEKLKAKDKEAAERFVKELEEAAKEYAKDEAKTMSEEEAKRRAKKYKEKVLLSELSEEEQKEIKEAEEKLVRTILKYVEEAAK | 0.49
K15G (designed binder) SMEEEVEKAAKEYEGKKKEAIEKHLEKLKAKDKEAAERFLKELEEAAKEYAKDEAKTMSEEEAKRRAKKYKEKVLLSELSEEEQKEIKEAEEKLVRTILKYVEEAAK | 0.653
V74I (designed binder) SMEEEVEKAAKEYEKKKKEAIEKHLEKLKAKDKEAAERFLKELEEAAKEYAKDEAKTMSEEEAKRRAKKYKEKILLSELSEEEQKEIKEAEEKLVRTILKYVEEAAK | 0.446
K56W (designed binder) SMEEEVEKAAKEYEKKKKEAIEKHLEKLKAKDKEAAERFLKELEEAAKEYAKDEAWTMSEEEAKRRAKKYKEKVLLSELSEEEQKEIKEAEEKLVRTILKYVEEAAK | 11.4
A9D (designed binder) SMEEEVEKDAKEYEKKKKEAIEKHLEKLKAKDKEAAERFLKELEEAAKEYAKDEAKTMSEEEAKRRAKKYKEKVLLSELSEEEQKEIKEAEEKLVRTILKYVEEAAK | 1.16
A47D (designed binder) SMEEEVEKAAKEYEKKKKEAIEKHLEKLKAKDKEAAERFLKELEEADKEYAKDEAKTMSEEEAKRRAKKYKEKVLLSELSEEEQKEIKEAEEKLVRTILKYVEEAAK | 1.16
K93N (designed binder) SMEEEVEKAAKEYEKKKKEAIEKHLEKLKAKDKEAAERFLKELEEAAKEYAKDEAKTMSEEEAKRRAKKYKEKVLLSELSEEEQKEIKEAEENLVRTILKYVEEAAK | 1.27

Second part, the binder after the results:

apparent Kd (screen) [nM] | Binder
1.54 | K107R (designed binder) SMEEEVEKAAKEYEKKKKEAIEKHLEKLKAKDKEAAERFLKELEEAAKEYAKDEAKTMSEEEAKRRAKKYKEKVLLSELSEEEQKEIKEAEEKLVRTILKYVEEAAR
0.539 | E22S (designed binder) SMEEEVEKAAKEYEKKKKEAISKHLEKLKAKDKEAAERFLKELEEAAKEYAKDEAKTMSEEEAKRRAKKYKEKVLLSELSEEEQKEIKEAEEKLVRTILKYVEEAAK
1.4 | R38H (designed binder) SMEEEVEKAAKEYEKKKKEAIEKHLEKLKAKDKEAAEHFLKELEEAAKEYAKDEAKTMSEEEAKRRAKKYKEKVLLSELSEEEQKEIKEAEEKLVRTILKYVEEAAK
11.4 | L99Q (designed binder) SMEEEVEKAAKEYEKKKKEAIEKHLEKLKAKDKEAAERFLKELEEAAKEYAKDEAKTMSEEEAKRRAKKYKEKVLLSELSEEEQKEIKEAEEKLVRTIQKYVEEAAK
0.446 | E22R (designed binder) SMEEEVEKAAKEYEKKKKEAIRKHLEKLKAKDKEAAERFLKELEEAAKEYAKDEAKTMSEEEAKRRAKKYKEKVLLSELSEEEQKEIKEAEEKLVRTILKYVEEAAK
0.446 | E34T (designed binder) SMEEEVEKAAKEYEKKKKEAIEKHLEKLKAKDKTAAERFLKELEEAAKEYAKDEAKTMSEEEAKRRAKKYKEKVLLSELSEEEQKEIKEAEEKLVRTILKYVEEAAK
12.5 | L43P (designed binder) SMEEEVEKAAKEYEKKKKEAIEKHLEKLKAKDKEAAERFLKEPEEAAKEYAKDEAKTMSEEEAKRRAKKYKEKVLLSELSEEEQKEIKEAEEKLVRTILKYVEEAAK
4.39 | M58S (designed binder) SMEEEVEKAAKEYEKKKKEAIEKHLEKLKAKDKEAAERFLKELEEAAKEYAKDEAKTSSEEEAKRRAKKYKEKVLLSELSEEEQKEIKEAEEKLVRTILKYVEEAAK
1.4 | R65I (designed binder) SMEEEVEKAAKEYEKKKKEAIEKHLEKLKAKDKEAAERFLKELEEAAKEYAKDEAKTMSEEEAKIRAKKYKEKVLLSELSEEEQKEIKEAEEKLVRTILKYVEEAAK
0.956 | E12V (designed binder) SMEEEVEKAAKVYEKKKKEAIEKHLEKLKAKDKEAAERFLKELEEAAKEYAKDEAKTMSEEEAKRRAKKYKEKVLLSELSEEEQKEIKEAEEKLVRTILKYVEEAAK
1.69 | L76H (designed binder) SMEEEVEKAAKEYEKKKKEAIEKHLEKLKAKDKEAAERFLKELEEAAKEYAKDEAKTMSEEEAKRRAKKYKEKVLHSELSEEEQKEIKEAEEKLVRTILKYVEEAAK
0.49 | E26C (designed binder) SMEEEVEKAAKEYEKKKKEAIEKHLCKLKAKDKEAAERFLKELEEAAKEYAKDEAKTMSEEEAKRRAKKYKEKVLLSELSEEEQKEIKEAEEKLVRTILKYVEEAAK
2.73 | K56Q (designed binder) SMEEEVEKAAKEYEKKKKEAIEKHLEKLKAKDKEAAERFLKELEEAAKEYAKDEAQTMSEEEAKRRAKKYKEKVLLSELSEEEQKEIKEAEEKLVRTILKYVEEAAK
0.718 | K52Q (designed binder) SMEEEVEKAAKEYEKKKKEAIEKHLEKLKAKDKEAAERFLKELEEAAKEYAQDEAKTMSEEEAKRRAKKYKEKVLLSELSEEEQKEIKEAEEKLVRTILKYVEEAAK
0.446 | K85E (designed binder) SMEEEVEKAAKEYEKKKKEAIEKHLEKLKAKDKEAAERFLKELEEAAKEYAKDEAKTMSEEEAKRRAKKYKEKVLLSELSEEEQEEIKEAEEKLVRTILKYVEEAAK
